{"source": "patent US20170137818", "about": "“APTAMER INHIBITING BIOLOGICAL ACTIVITY OF AUTOTAXIN BY BINDING WITH AUTOTAXIN, AND USE THEREOF” (RIBOMIC INC., published 2017)", "binders": {"B1": {"name": "SEQ 9 aptamer (ssDNA)", "DNA": "GTGGTCTAGCTGTACTCAGGCCGGAACCGGTGAAATTGGTCGCCTAATAAGCGAAATCCACAGTCAACGAGCTA"}, "B2": {"name": "SEQ 20 aptamer (ssDNA)", "DNA": "ACACTCACAGGCGCTGGGGTACGCTCGGAACCGAGGCAATTGGTCAGCGTGCATGGCCGCTAGT"}, "B3": {"name": "SEQ 23 aptamer (ssDNA)", "DNA": "ACACTCACAGGCGCTGGCACGGACCGGAACCGGGACGCTCGGTCGACCGTGCATGGCCGCTAGT"}, "B4": {"name": "12(49) (ssDNA)", "DNA": "CCTGGACGGAACCAGAATACTTTTGGTCTCCAGG", "modifications": "2'-OMe C1,G5,C7,G9,C12,C13,A14,G15,A19,C20,A32,G33,G34; 5' 40 kDa PEG via ssH linker, 3' idT"}, "B5": {"name": "12(56) (ssDNA)", "DNA": "B4 DNA", "modifications": "2'-OMe C7,G9,A14,G15,A19,C20,A32,G33,G34; 5' 40 kDa PEG (GL2-400GS2) via ssH linker; 3' C6 spacer"}, "B6": {"name": "12(57) (ssDNA)", "DNA": "B4 DNA", "modifications": "2'-OMe C7,G9,A14,G15,A19,C20,A32,G33,G34; 5' 40 kDa PEG (GL2-400GS2) via ssH linker; 3' C12 spacer"}, "B7": {"name": "12(51) (ssDNA)", "DNA": "B4 DNA", "modifications": "2'-OMe C7,G9,A14,G15,A19,C20,A32,G33,G34; 5' 80 kDa PEG (GL2-800TS) via ssH linker; 3' idT"}, "B8": {"name": "12(52) (ssDNA)", "DNA": "B4 DNA", "modifications": "2'-OMe C7,G9,A14,G15,A19,C20,A32,G33,G34; 5' 80 kDa PEG (GL4-800GS2) via ssH linker; 3' idT"}, "B9": {"name": "12(53) (ssDNA)", "DNA": "B4 DNA", "modifications": "2'-OMe C7,G9,A14,G15,A19,C20,A32,G33,G34; 5' 80 kDa PEG (GL4-800TS) via ssH linker; 3' idT"}, "B10": {"name": "12(134) (ssDNA)", "DNA": "B4 DNA", "modifications": "2'-OMe C7,G9,A14,G15,A19,C20,A32,G33,G34; P-methyl C1,G5,G8,C12,A16,T21,T23,C28,C30,C31; 5' 40 kDa PEG (GL2-400GS2) via ssH linker; 3' idT"}, "B11": {"name": "12(136) (ssDNA)", "DNA": "B4 DNA", "modifications": "2'-OMe C7,G9,A14,G15,A19,C20,A32,G33,G34; P-methyl C1,G5,G8,C12,A16,T21,T23,C28,C30,C31,G33; idT 5' and 3'"}, "B12": {"name": "12(137) (ssDNA)", "DNA": "B4 DNA", "modifications": "2'-OMe C7,G9,A14,G15,A19,C20,A32,G33,G34; P-methyl C1,G5,G8,C12,A16,T21,T23,C28,C30,C31,A32; idT 5' and 3'"}, "B13": {"name": "12(138) (ssDNA)", "DNA": "B4 DNA", "modifications": "2'-OMe C7,G9,A14,G15,A19,C20,A32,G33,G34; P-methyl C1,G5,G8,C12,A16,C20,T21,T23,C28,C30,C31; idT 5' and 3'"}, "B14": {"name": "12(140) (ssDNA)", "DNA": "B4 DNA", "modifications": "2'-OMe C7,G9,A14,G15,A19,C20,A32,G33,G34; P-methyl C1,G5,G8,C12,G15,A16,T21,T23,C28,C30,C31; idT 5' and 3'"}, "B15": {"name": "12(142) (ssDNA)", "DNA": "B4 DNA", "modifications": "2'-OMe C7,G9,A14,G15,A19,C20,A32,G33,G34; P-methyl C1,G5,G8,G9,C12,A16,T21,T23,C28,C30,C31; idT 5' and 3'"}, "B16": {"name": "12(146) (ssDNA)", "DNA": "B4 DNA", "modifications": "2'-OMe C7,G9,A14,G15,A19,C20,A32,G33,G34; P-methyl C1,G5,G8,C12,A14,A16,T21,T23,C28,C30,C31; 5' 40 kDa PEG (GL2-400GS2) via ssH linker; 3' idT"}}, "key": {"autotaxin (ENPP2/NPP2) [1]": {"target": "T1, autotaxin (ENPP2/NPP2) (Homo sapiens, UniProt Q13822 Q13822:36-863)", "assay": "inhibition; NPP2 assay, 37 C"}, "[2]": {"target": "autotaxin (endogenous, human pooled serum) (Homo sapiens, UniProt Q13822 Q13822:36-863)", "assay": "inhibition; LPA production in serum, 1.0 uM"}, "autotaxin (ENPP2/NPP2) [3]": {"target": "T1, autotaxin (ENPP2/NPP2)", "assay": "inhibition; LPA production, 1.0 uM aptamer, ~92% serum, 37C 3 h"}, "autotaxin (ENPP2/NPP2) [4]": {"target": "T1, autotaxin (ENPP2/NPP2)", "assay": "inhibition; LPA production, 0.20 uM aptamer, ~92% serum, 37C 3 h"}, "autotaxin (ENPP2/NPP2) [5]": {"target": "T1, autotaxin (ENPP2/NPP2)", "assay": "inhibition; LPA production, 0.025 uM aptamer, ~92% serum, 37C 3 h"}}}
{"binder": "B1", "values": [{"measurement": "IC50", "setting": "autotaxin (ENPP2/NPP2) [1]", "value": 36, "unit": "nM"}]}
{"binder": "B2", "values": [{"measurement": "IC50", "setting": "autotaxin (ENPP2/NPP2) [1]", "value": 37, "unit": "nM"}]}
{"binder": "GGGACGGAACCAGAATACTTTTGGTCTCCC (ssDNA)", "note": "[SEQ 14 aptamer]", "values": [{"measurement": "IC50", "setting": "autotaxin (ENPP2/NPP2) [1]", "value": 42, "unit": "nM"}]}
{"binder": "B3", "values": [{"measurement": "IC50", "setting": "autotaxin (ENPP2/NPP2) [1]", "value": 75, "unit": "nM"}]}
{"binder": "TGGACGGAACCAGAATACTTTTGGTCTCCA (ssDNA)", "note": "[SEQ 13 aptamer]", "values": [{"measurement": "IC50", "setting": "autotaxin (ENPP2/NPP2) [1]", "value": 110, "unit": "nM"}]}
{"binder": "CGCTGGGGTACGCTCGGAACCGAGGCAATTGGTCAGCG (ssDNA)", "note": "[SEQ 26 aptamer]", "values": [{"measurement": "IC50", "setting": "autotaxin (ENPP2/NPP2) [1]", "value": 440, "unit": "nM"}]}
{"binder": "CCTGGACGGAACCAGAATACTTTTGGTCTCCAGG (ssDNA, 2'-OMe C1,G5,C7,G9,C12,C13,A14,G15,A19,C20,A32,G33,G34; 5' idT, 3' idT)", "note": "[12(42)]", "values": [{"measurement": "activity", "setting": "[2]", "value": 68, "unit": "% inhibition"}]}
{"binder": "B4", "values": [{"measurement": "activity", "setting": "[2]", "value": 58, "unit": "% inhibition"}]}
{"binder": "CCTGGACGGAACCAGAATACTTTTGGTCTCCAGG (ssDNA, 2'-OMe C1,G5,C7,G9,C12,A14,G15,A19,C20,A32,G33,G34; idT 5' and 3')", "note": "[12(43)]", "values": [{"measurement": "activity", "setting": "autotaxin (ENPP2/NPP2) [3]", "value": 85, "unit": "% inhibition"}]}
{"binder": "CCTGGACGGAACCAGAATACTTTTGGTCTCCAGG (ssDNA, 2'-OMe C1,G5,C7,G9,C13,A14,G15,A19,C20,A32,G33,G34; idT 5' and 3')", "note": "[12(44)]", "values": [{"measurement": "activity", "setting": "autotaxin (ENPP2/NPP2) [3]", "value": 87, "unit": "% inhibition"}]}
{"binder": "B5", "values": [{"measurement": "activity", "setting": "autotaxin (ENPP2/NPP2) [4]", "value": 93, "unit": "% inhibition"}]}
{"binder": "B6", "values": [{"measurement": "activity", "setting": "autotaxin (ENPP2/NPP2) [4]", "value": 93, "unit": "% inhibition"}]}
{"binder": "CCTGGACGGAACCAGAATACTTTTGGTCTCCAGG (ssDNA, 2'-OMe C1,C7,G9,C12,A14,G15,A19,C20,A32,G33,G34; idT 5' and 3')", "note": "[12(45)]", "values": [{"measurement": "activity", "setting": "autotaxin (ENPP2/NPP2) [3]", "value": 86, "unit": "% inhibition"}]}
{"binder": "CCTGGACGGAACCAGAATACTTTTGGTCTCCAGG (ssDNA, 2'-OMe C1,C7,G9,C13,A14,G15,A19,C20,A32,G33,G34; idT 5' and 3')", "note": "[12(46)]", "values": [{"measurement": "activity", "setting": "autotaxin (ENPP2/NPP2) [3]", "value": 83, "unit": "% inhibition"}]}
{"binder": "CCTGGACGGAACCAGAATACTTTTGGTCTCCAGG (ssDNA, 2'-OMe C1,G5,C7,G9,C12,C13,A14,G15,A19,C20,C30,A32,G33,G34; idT 5' and 3')", "note": "[12(47)]", "values": [{"measurement": "activity", "setting": "autotaxin (ENPP2/NPP2) [3]", "value": 57, "unit": "% inhibition"}]}
{"binder": "B7", "values": [{"measurement": "activity", "setting": "autotaxin (ENPP2/NPP2) [4]", "value": 91, "unit": "% inhibition"}]}
{"binder": "B8", "values": [{"measurement": "activity", "setting": "autotaxin (ENPP2/NPP2) [4]", "value": 92, "unit": "% inhibition"}]}
{"binder": "B9", "values": [{"measurement": "activity", "setting": "autotaxin (ENPP2/NPP2) [4]", "value": 92, "unit": "% inhibition"}]}
{"binder": "B10", "values": [{"measurement": "activity", "setting": "autotaxin (ENPP2/NPP2) [5]", "value": 69, "unit": "% inhibition"}]}
{"binder": "B11", "values": [{"measurement": "activity", "setting": "autotaxin (ENPP2/NPP2) [5]", "value": 17, "unit": "% inhibition"}]}
{"binder": "B12", "values": [{"measurement": "activity", "setting": "autotaxin (ENPP2/NPP2) [5]", "value": 56, "unit": "% inhibition"}]}
{"binder": "B13", "values": [{"measurement": "activity", "setting": "autotaxin (ENPP2/NPP2) [5]", "value": 44, "unit": "% inhibition"}]}
{"binder": "B14", "values": [{"measurement": "activity", "setting": "autotaxin (ENPP2/NPP2) [5]", "value": 29, "unit": "% inhibition"}]}
{"binder": "CCTGGACGGAACCAGAATACTTTTGGTCTCCAGG (ssDNA, 2'-OMe C7,G9,A14,G15,A19,C20,A32,G33,G34; 5' idT; 3' C12 spacer)", "note": "[12(54)]", "values": [{"measurement": "activity", "setting": "autotaxin (ENPP2/NPP2) [4]", "value": 89, "unit": "% inhibition"}]}
{"binder": "B15", "values": [{"measurement": "activity", "setting": "autotaxin (ENPP2/NPP2) [5]", "value": 44, "unit": "% inhibition"}]}
{"binder": "B16", "values": [{"measurement": "activity", "setting": "autotaxin (ENPP2/NPP2) [5]", "value": 70, "unit": "% inhibition"}]}
{"binder": "CCTGGACGGAACCAGAATACTTTTGGTCTCCAGG (ssDNA, 2'-OMe C7,G9,A14,G15,A19,C20,A32,G33,G34; 5' C12 spacer; 3' idT)", "note": "[12(55)]", "values": [{"measurement": "activity", "setting": "autotaxin (ENPP2/NPP2) [4]", "value": 91, "unit": "% inhibition"}]}
